# Tests used:
# [1] = target: human uPAR expressed on the cell surface (human) (UniProt Q03405); assay: flow cytometry on A375 cells, isotype control (background)
# [2] = target: human uPAR expressed on the cell surface (human) (UniProt Q03405); assay: flow cytometry on 293T cells, isotype control (background)
# [3] = target: human uPAR expressed on the cell surface (human) (UniProt Q03405); assay: flow cytometry on 293T-uPAR cells, isotype control (background)
# Chain of human uPAR expressed on the cell surface (human) (Q03405 23-305): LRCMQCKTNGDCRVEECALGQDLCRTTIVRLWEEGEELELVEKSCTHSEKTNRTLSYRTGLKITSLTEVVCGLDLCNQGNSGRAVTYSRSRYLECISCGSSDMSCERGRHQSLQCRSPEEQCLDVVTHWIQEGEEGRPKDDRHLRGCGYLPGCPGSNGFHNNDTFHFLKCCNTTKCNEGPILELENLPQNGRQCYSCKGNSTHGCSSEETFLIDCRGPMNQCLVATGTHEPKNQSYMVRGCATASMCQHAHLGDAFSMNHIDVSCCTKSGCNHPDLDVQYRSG
substance,measurement,setting,value
isotype antibody,MFI,[1],71.3
same,MFI,[2],62
same,MFI,[3],46.4

# Reference: patent publication US20240417485A1
